Data taken from US20260209362A1 (VIB VZW, published 2026).

T1: biotinylated recombinant human IL-12Rβ2 (human, UniProt Q99665 24-622, random biotinylated)
T1 construct: Recombinant protein produced in-house; also called hIL-12RB2; human IL-12RB2
T1 sequence: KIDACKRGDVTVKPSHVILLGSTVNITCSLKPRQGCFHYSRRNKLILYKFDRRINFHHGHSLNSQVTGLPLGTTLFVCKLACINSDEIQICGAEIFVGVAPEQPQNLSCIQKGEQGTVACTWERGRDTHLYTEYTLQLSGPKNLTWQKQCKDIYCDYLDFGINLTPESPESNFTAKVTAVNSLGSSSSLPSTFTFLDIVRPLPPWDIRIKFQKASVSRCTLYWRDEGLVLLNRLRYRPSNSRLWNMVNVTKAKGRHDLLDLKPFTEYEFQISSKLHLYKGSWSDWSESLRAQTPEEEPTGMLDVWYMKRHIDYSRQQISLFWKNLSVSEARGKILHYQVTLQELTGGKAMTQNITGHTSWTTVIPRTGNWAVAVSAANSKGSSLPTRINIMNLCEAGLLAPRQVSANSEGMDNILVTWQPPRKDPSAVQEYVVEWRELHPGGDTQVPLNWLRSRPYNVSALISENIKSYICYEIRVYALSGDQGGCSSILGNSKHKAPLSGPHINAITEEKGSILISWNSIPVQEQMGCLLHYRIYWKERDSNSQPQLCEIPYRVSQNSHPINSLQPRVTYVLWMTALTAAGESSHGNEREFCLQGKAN

T2: biotinylated recombinant mouse IL-12Rβ2 (mouse, UniProt P97378 24-637, random biotinylated)
T2 construct: Recombinant protein produced in-house; also called mIL-12RB2; mouse IL-12RB2
T2 sequence: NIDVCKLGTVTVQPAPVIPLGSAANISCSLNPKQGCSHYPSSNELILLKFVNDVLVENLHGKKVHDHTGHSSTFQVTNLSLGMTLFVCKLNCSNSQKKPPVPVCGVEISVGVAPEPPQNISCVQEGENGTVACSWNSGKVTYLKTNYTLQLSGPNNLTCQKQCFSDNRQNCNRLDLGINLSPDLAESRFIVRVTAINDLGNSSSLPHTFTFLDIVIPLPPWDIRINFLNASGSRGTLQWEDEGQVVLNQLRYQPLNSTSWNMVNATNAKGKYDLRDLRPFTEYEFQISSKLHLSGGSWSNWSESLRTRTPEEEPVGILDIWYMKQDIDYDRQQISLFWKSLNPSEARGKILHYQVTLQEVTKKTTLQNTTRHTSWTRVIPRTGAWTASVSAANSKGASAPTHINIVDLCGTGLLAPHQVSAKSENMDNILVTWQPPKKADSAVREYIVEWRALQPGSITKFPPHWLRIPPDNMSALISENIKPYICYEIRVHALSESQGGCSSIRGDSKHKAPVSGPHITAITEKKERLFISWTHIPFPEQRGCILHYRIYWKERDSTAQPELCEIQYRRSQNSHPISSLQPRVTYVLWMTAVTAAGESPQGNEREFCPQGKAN

T3: biotinylated mouse recombinant IL-12Rβ2 (produced in-house) (mouse, UniProt P97378 24-637, random biotinylated)
T3 construct: Soluble recombinant protein used for panning, ELISA and BLI; also called mIL-12RB2; mIL12RB2
T3 sequence: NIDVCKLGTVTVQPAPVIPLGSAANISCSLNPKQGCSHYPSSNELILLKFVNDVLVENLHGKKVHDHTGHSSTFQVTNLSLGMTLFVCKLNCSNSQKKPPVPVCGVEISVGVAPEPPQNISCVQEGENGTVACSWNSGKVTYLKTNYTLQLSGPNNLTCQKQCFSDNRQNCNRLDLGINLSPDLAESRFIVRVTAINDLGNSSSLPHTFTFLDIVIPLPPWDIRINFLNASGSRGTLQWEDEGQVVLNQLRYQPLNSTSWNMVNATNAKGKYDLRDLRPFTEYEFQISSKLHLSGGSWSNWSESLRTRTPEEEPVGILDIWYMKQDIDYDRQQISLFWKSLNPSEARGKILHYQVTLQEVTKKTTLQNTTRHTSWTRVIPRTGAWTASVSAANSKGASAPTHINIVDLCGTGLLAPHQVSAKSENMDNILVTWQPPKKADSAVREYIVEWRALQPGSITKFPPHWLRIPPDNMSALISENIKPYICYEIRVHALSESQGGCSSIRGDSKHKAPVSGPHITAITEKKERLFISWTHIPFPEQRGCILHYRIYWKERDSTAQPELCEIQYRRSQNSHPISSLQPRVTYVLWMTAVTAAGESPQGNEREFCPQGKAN

T4: biotinylated human recombinant IL-12Rβ2 (produced in-house) (human, UniProt Q99665 24-622, random biotinylated)
T4 construct: Soluble recombinant protein used for panning, ELISA and BLI; also called hIL-12RB2; hIL12RB2
T4 sequence: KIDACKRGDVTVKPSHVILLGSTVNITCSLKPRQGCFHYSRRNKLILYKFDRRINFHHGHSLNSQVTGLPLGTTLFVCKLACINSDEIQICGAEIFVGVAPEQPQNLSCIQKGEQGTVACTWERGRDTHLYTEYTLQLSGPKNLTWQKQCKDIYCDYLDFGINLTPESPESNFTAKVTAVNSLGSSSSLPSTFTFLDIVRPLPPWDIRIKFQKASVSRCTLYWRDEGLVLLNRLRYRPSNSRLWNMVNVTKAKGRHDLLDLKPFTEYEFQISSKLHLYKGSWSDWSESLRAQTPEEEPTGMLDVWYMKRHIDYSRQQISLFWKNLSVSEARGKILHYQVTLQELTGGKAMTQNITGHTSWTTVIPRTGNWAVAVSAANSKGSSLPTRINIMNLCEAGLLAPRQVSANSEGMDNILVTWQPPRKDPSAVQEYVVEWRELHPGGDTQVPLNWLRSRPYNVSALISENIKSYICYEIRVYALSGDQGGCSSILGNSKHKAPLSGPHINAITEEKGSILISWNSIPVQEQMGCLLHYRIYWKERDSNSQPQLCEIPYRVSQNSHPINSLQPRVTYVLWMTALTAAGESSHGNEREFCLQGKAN

T5: human IL-12Rβ2 expressed on cells (human, UniProt Q99665 24-862)
T5 construct: the cell lines are described by plasmid or cDNA number only; also called hIL-12RB2; HEK293T transiently transfected with human IL-12Rβ2
T5 sequence: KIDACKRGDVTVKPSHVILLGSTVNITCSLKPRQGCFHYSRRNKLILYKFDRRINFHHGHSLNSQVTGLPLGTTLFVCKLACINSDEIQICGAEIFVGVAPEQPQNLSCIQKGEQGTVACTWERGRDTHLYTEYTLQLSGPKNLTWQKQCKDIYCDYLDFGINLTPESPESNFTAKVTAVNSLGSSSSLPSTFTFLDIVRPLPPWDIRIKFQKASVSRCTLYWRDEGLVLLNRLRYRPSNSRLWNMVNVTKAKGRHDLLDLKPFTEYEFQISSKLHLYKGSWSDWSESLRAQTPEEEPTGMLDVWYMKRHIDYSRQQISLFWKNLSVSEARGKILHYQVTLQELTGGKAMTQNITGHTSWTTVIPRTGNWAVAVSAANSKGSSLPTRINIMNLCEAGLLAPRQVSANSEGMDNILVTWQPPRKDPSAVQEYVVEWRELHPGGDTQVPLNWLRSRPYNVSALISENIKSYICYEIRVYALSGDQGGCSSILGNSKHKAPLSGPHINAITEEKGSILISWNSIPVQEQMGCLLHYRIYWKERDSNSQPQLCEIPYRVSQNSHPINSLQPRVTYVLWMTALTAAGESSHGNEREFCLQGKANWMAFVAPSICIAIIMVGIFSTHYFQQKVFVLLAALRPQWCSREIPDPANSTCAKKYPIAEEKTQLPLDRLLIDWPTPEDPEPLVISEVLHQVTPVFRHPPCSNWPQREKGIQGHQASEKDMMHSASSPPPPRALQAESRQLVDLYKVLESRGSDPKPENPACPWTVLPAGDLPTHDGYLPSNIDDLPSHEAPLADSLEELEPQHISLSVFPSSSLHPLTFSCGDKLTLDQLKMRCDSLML

T6: mouse IL-12Rβ2 expressed on cells (mouse, UniProt P97378 24-874)
T6 construct: the cell lines are described by plasmid or cDNA number only; also called mIL-12RB2; HEK293T transiently transfected with mouse IL-12Rβ2
T6 sequence: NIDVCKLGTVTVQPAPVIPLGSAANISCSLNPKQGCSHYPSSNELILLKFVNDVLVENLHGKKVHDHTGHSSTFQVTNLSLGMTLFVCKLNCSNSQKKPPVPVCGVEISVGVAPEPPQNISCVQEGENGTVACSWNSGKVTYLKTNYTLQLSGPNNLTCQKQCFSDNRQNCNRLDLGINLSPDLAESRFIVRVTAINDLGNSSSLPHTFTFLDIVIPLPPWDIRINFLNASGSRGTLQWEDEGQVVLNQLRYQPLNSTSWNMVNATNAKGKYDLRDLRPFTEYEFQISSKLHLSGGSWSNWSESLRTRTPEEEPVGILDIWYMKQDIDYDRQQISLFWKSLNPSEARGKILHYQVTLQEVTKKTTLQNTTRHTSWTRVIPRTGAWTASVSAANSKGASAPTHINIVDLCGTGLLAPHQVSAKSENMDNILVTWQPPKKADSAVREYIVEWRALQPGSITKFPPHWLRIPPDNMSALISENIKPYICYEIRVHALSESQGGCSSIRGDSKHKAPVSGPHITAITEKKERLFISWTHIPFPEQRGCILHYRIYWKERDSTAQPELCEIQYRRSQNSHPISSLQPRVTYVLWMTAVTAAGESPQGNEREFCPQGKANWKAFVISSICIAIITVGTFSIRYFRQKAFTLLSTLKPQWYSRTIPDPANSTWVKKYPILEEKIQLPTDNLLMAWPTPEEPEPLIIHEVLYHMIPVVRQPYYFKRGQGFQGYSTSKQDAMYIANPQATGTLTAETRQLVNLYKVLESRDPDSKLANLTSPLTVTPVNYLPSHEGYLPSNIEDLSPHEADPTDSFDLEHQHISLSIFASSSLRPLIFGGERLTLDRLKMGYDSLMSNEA


Assays:
[1] = biological target: T1, biotinylated recombinant human IL-12Rβ2; test: ELISA, P.E., biotinylated antigen
[2] = biological target: T2, biotinylated recombinant mouse IL-12Rβ2; test: ELISA, P.E., biotinylated antigen
[3] = biological target: T1, biotinylated recombinant human IL-12Rβ2; test: BLI, P.E., off-rate ranking
[4] = biological target: T2, biotinylated recombinant mouse IL-12Rβ2; test: BLI, P.E., off-rate ranking
[5] = biological target: T3, biotinylated mouse recombinant IL-12Rβ2 …; test: BLI (Octet Red), periplasmic extract on biotinylated mouse IL-12Rβ2 on streptavidin tips
[6] = biological target: T4, biotinylated human recombinant IL-12Rβ2 …; test: ELISA, periplasmic extract on biotinylated human IL-12Rβ2; signal over streptavidin control well
[7] = biological target: T4, biotinylated human recombinant IL-12Rβ2 …; test: BLI (Octet Red), periplasmic extract on biotinylated human IL-12Rβ2 on streptavidin tips, 1:1 model
[8] = biological target: T3, biotinylated mouse recombinant IL-12Rβ2 …; test: BLI (Octet Red), periplasmic extract on biotinylated mouse IL-12Rβ2 on streptavidin tips, 1:1 model
[9] = biological target: T3, biotinylated mouse recombinant IL-12Rβ2 …; test: ELISA, periplasmic extract on biotinylated mouse IL-12Rβ2; signal over streptavidin control well
[10] = biological target: T4, biotinylated human recombinant IL-12Rβ2 …; test: BLI (Octet Red), periplasmic extract on biotinylated human IL-12Rβ2 on streptavidin tips
[11] = biological target: T5, human IL-12Rβ2 expressed on cells; test: flow cytometry, periplasmic extract VHH-HA on HEK293T cells transiently expressing human IL-12Rβ2
[12] = biological target: T6, mouse IL-12Rβ2 expressed on cells; test: flow cytometry, periplasmic extract VHH-HA on HEK293T cells transiently expressing mouse IL-12Rβ2

Row | ELISA hIL-12RB2/control [1] | ELISA mIL-12RB2/control [2] | Response [3] | koff [3] [s⁻¹] | Response [4] | koff [4] [s⁻¹] | Response [5] | hIL12RB2/control (ELISA) [6] [ratio] | koff [7] [s⁻¹] | koff [8] [s⁻¹] | mIL12RB2/control (ELISA) [9] [ratio] | Response [10] | % cells bound [11] [%] | dMFI [11] | % cells bound [12] [%] | dMFI [12] | Binder
1 | 8.46 | 14 | 0.693 | 0.00528 | 1.35 | 0.00722 |  |  |  |  |  |  |  |  |  |  | anti-IL-12Rβ2 VHH clone 3CRH83 (clone ID 20390) (VHH, not shown: small tags and cut ends, periplasmic extract) VHH: QVQLQESGGGLVQAGGSLKLSCAASGNTFSINAMAWYRQAPGQELELVAAISDVGNTIYADSMKGRFTISRGNADNTVYLQMNSLKPEDTATYYCNAGTFYTSPGDSYYRGYDFWGQGTQVTVSS
2 |  |  |  |  |  |  | 0.812 | 4.24 | 0.00634 | 0.00671 | 5.24 | 1.45 | 24.4 | 458 | 10.7 | 251 | anti-IL-12Rβ2 VHH clone 3CRHM99 (clone ID 21062) (VHH, Tested as periplasmic extract; not shown: C-terminal HA tag) VHH: QVQLQESGGGLVQPGGSLRLSCAASGISSSRLHVGWFRQSPGKEREFVAAISLSGGTQAYTDSVKGRFTISGDNVKNTAYLQMNSLRPEDTAVYYCAARERFIWTWSDLTYDYWGQGTQVTVSS
3 |  |  |  |  |  |  | 0.957 | 3.11 | 0.00532 | 0.00483 | 25.1 | 1.19 | 35.8 | 589 | 18.6 | 312 | anti-IL-12Rβ2 VHH clone 3CRHM14 (clone ID 21053) (VHH, Tested as periplasmic extract; not shown: C-terminal HA tag) VHH: QVQLQESGGGLVQAGGSLRLSCAASGRTFSNYAMAWFRQAPGTEREFVAGLSGSGGDTEFYDDSVKGRFAISRDSAKNTVWLQMNSLKPEDTAVYYCAAATHVVVHYGLVRRRGTYDYWGQGTQVTVSS
